Where a chain is given by its changes, count along the chain named.

The chains are these.
B1: PRT-669 (protein)
chain: MQITSVWTKGVTPPTPEQFTNNNEDVFHAPYLANQGWYDITKTFNGKDNLLCGAATAGNMLHWWFDQNKEQIEAYLKKHPEKQKIIFNNQEMFDLKKAIDTKDSQTNSALFNYFRDKAFPNLSARQLGVMPDLVLDMFINGYYLNVGKTQSTDVNRPYQTKDKRGGIFDAVFTRGDQTKLLTARHDLKNKGLNEISDLIKQELTEGKALALSHTYANVRINHVINLWGADFNAEGNLIAIYVTDSDSNASIGMKKYFVGVNSAGKVAISAKKIEGDNIGAQVLGLFTLSSGQDIWQKLSLEHHHHHH
B2: PRT-638 (protein)
chain: MQITSVWTKGVTPLTPEQFRYNNEDVIHAPYLAHQGWYDITKLNDTGDGLLCGAATAGNMLHWWFDQNKTEIEAYLSKHPEKQKIIFNNQELFDLKAAIDTKDSQTNSQLFNYFRDKAFPNLSARQKGVMPDLVLDMFINGYYLNVFKTQSTDVNRPYQDKDKRGGIFDAVFTRGDQTTLLTARHDLKNKGLNDISTIIKQELTEGRALALSHTYANVSISHVINLWGADFNAEGNLEAIYVTDSNAGNGIGMKKYFVGINAHGHVAISAKKIEGENIGAQVLGLFTLSSGKDIWQKLSLEHHHHHH
B3: PRT-695 (protein)
chain: MTITTVWTKGVTPPTPEDFRYNNEDVLHAPYVPNQGWYDITKTFDGKDNLLCGAATAGNMLHWWFDQNKEEIERYLKKYPEKQKIIFNNQELFDVRAAINTKDSQTNSKLFNYFRDKAFPNLSARQLGVMPDLVLDMFINGYYLNLGKTQSTDVNRPYQDRDKRGGIFDAVFNRGDQTTLLTARHDLKNKGLNEISDLIKQELSSGKALALSHTYANVRINHVINLWGADFDAEGNLIAIYVTDSDANASIGMKKYYVGVNANGKVAISAKKIEGDNIGAQVLGLFTLSTGQDIWQKLSLEHHHHHH
B4: PRT-631 (protein)
chain: MQITSVWTKGVTPLTPEQFRYNNEDVIHAPYLAHQGWYDITKAFDGKDNLLCGAATAGNMLHWWFDQNKEEIDNYLKKYPDKQKIIFNNQELFDLKAAIDTKDSQTNSQLFNYFRDKAFPNLSARQLGVMPDLVLDMFINGYYLNVFKTQSTDVNRPYQDKDKRGGIFDAVFTRGDQTTLLTARHDLKNKGLNDISTIIKQELTEGRALALSHTYANVSISHVINLWGADFNAEGNLEAIYVTDSDANASIGMKKYFVGINAHGHVAISAKKIEGENIGAQVLGLFTLSSGKEIWKKLSLEHHHHHH
B5: PRT-531 (protein)
chain: MANQEIRYSEDTPSHITSVWTKGVTPPTQFIQNEDVLHAPYIANQGWYDITKTFNGKDDLLCGAATAGNMLHWWFDQNKEQIEAYLKKYPEKQKINFNGEQMFDVKEAIDTKDSQTDSALFNYFRDKAFPNLSTKHLGVMPDHVIDMFINGYRLNLGNHGPTPVKNQTKDLRGGIFDAVFTRGDQSKLLTARHDFKEKTLKEISQLIKQELTEGKALALSHTYANVRINHVINLWGADFNAEGNLEAIYVTDSDSNASIGMKKYYVGVNAAGKVAISAKEIEGDNIGAQVLGLFTLSSGQDIWQQTNLEHHHHHH
B6: PRT-645 (protein)
chain: MQITSVWTKGVTPLTPEQFRYNNEDVIHAPYLAHQGWYDITKAFDGKDNLLCGAATAGNMLHWWFDQNKTEIEAYLSKHPEKQKIIFNNQELFDLKAAIDTKDSQTNSQLFNYFRDKAFPNLSARQLGVMPDLVLDMFINGYYLNVFKTQSTDVNRPYQDKDKRGGIFDAVFTRGDQTTLLTARHDLKNKGLNDISTIIKQELTEGRALALSHTYANVSISHVINLWGADFNAEGNLEAIYVTDSDANASIGMKKYYVGYNKSGRVAISAYKITDENIGAQVLGLFTLSSGKDIWQKLSLEHHHHHH
B7: PRT-649 (protein)
chain: MQITSVWTKGVTPLTPEQFRYNNEDVIHAPYLAHQGWYDITKAFDGKDNLLCGAATAGNMLHWWFDQNKTEIEAYLSKHPEKQKIIFNNQYLFDLKAAIDTKDSQTNSQLFNYFRDKAFGNLSARQLGVMPDLVLDMFINGYKLKVNKTQSTDVNRPYQKPDNFGGIFDAVFTRGDQTTLLTARHDLKNKGLNDISTIIKQELTEGRALALSHTYANVSISHVINLWGADFNAEGNLEAIYVTDSDANASIGMKKYFVGINAHGHVAISAKKIEGENIGAQVLGLFTLSSGKDIWQKLSLEHHHHHH
B8: PRT-676 (protein)
chain: MQITSVWTKGVTPPTMDQFTNYNYDVFHAPYKPGQGWYDITKTFDGKDNLLCGAATAGNMLHWWFDQNKEEIENYLKKHPEKQKIIFNNQKMFDLRKAINTKDSQTNSALFNYFKDKAFPNLSARQKGVMPDLVLDMFINGYYLNLGKTQSTDVNREYQTKDSRGGIFDDVFGRGDQTKLLTARHDLYNGGLNDISQLIKQELSSGKALGLSHTYANVRYSHVINLWGADFDEEGNLEAIYVTDSDDDASIGMKKYYVGKNASGKVAISAKKIEGENIGAQVLGLFTLSSGKEIWQKLSLEHHHHHH
B9: PRT-680 (protein)
chain: MQITSVWTKGVTPLTPEQFRYNNEDVIHAPYLPHQGWYDITKAFDGKDNLLCGAATAGNMLHWWFDQNKTEIEAYLSKHPEKQKIIFNNQELFDLRAAINTKDSQTNSALFNYFRDKAFPNLSARQLGVMPDLVLDMFINGYYLNVFKTQSTDVNRPYQDKDKRGGIFDAVFTRGDQTTLLTARHDLKNKGLNDISTIIKQELTEGKALALSHTYANVSISHVINLWGADFNAEGNLEAIYVTDSDANASIGMKKYYVGINAHGHVAISAKKIEGENIGAQVLGLFTLSSGKDIWQKLSLEHHHHHH
B10: PRT-616 (protein)
chain: B9 chain with S5T, H79Y, A109Q, K161R, T173N, T204S, E205S, K207R
B11: PRT-613 (protein)
chain: MQITTVWTKGVTPLTPEQFRYNNEDVIHAPYLAHQGWYDITKAFDGKDNLLCGAATAGNMLHWWFDQNKTEIEAYLSKHPEKQKIIFNNQELFDLKAAISTKDSQTNSQLFNYFRDKAFPNLSARQLGVMPDLVLDMFINGYYLNVFKTQSTDVNRPYQDKDKRGGIFDDVFTRGDQTTLLTARHDLKNGGLNDISTIIKQELTNGRALALSHTYANVSISHVINLWGADFNAEGNLEAIYVTDSDANARIGMKKYGVGINAHGHVAISAKKIEGENIGAQVLGLFTLSSGKDIWQKLSLEHHHHHH
B12: PRT-626 (protein)
chain: B9 chain with P33A, R96K, N100D, A109Q, Y158P, Q159D, A170H, T173N, K207R, Y257F
B13: PRT-604 (protein)
chain: B11 chain with T5S, S100D, T173G, R174K, G190K, N205E, R250S, G257F

The data set concerns the target pooled human IgG (human IgG1,2,3 and 4).
B1 showed an Enzyme activity endpoint: Fab′2 of 808 ng/µL, an Enzyme activity endpoint: Fc of 457 ng/µL, an Enzyme activity endpoint: IgG of 0 ng/µL and an Enzyme activity endpoint: scIgG of 0 ng/µL.

As to B2, the Enzyme activity endpoint: Fab′2 amounted to 550 ng/µL, the Enzyme activity endpoint: Fc came out at 10 ng/µL, the Enzyme activity endpoint: IgG is 823 ng/µL and the Enzyme activity endpoint: scIgG came to 17 ng/µL.

Turning to B3, the Enzyme activity endpoint: Fab′2 was 781 ng/µL, the Enzyme activity endpoint: Fc turned out to be 433 ng/µL, the Enzyme activity endpoint: IgG is 66 ng/µL and the Enzyme activity endpoint: scIgG amounted to 0 ng/µL.

In the case of B4, the Enzyme activity endpoint: Fab′2 came to 749 ng/µL, the Enzyme activity endpoint: Fc was 419 ng/µL, the Enzyme activity endpoint: IgG was 0 ng/µL and the Enzyme activity endpoint: scIgG was 0 ng/µL.

The protein B5 registered an Enzyme activity endpoint: Fab′2 of 756 ng/µL, an Enzyme activity endpoint: Fc of 212 ng/µL, an Enzyme activity endpoint: IgG of 0 ng/µL and an Enzyme activity endpoint: scIgG of 0 ng/µL.

B6 displayed an Enzyme activity endpoint: Fab′2 of 683 ng/µL, an Enzyme activity endpoint: Fc of 455 ng/µL, an Enzyme activity endpoint: IgG of 0 ng/µL and an Enzyme activity endpoint: scIgG of 236 ng/µL.

As for B7, the Enzyme activity endpoint: Fab′2 worked out at 657 ng/µL, the Enzyme activity endpoint: Fc came to 32 ng/µL, the Enzyme activity endpoint: IgG is 886 ng/µL and the Enzyme activity endpoint: scIgG came out at 24 ng/µL.

The protein B8 returned an Enzyme activity endpoint: Fab′2 of 107 ng/µL, an Enzyme activity endpoint: Fc of 136 ng/µL, an Enzyme activity endpoint: IgG of 0 ng/µL and an Enzyme activity endpoint: scIgG of 118 ng/µL.

The protein B9 had an Enzyme activity endpoint: Fab′2 of 752 ng/µL, an Enzyme activity endpoint: Fc of 451 ng/µL, an Enzyme activity endpoint: IgG of 0 ng/µL and an Enzyme activity endpoint: scIgG of 277 ng/µL.

B10 came in with an Enzyme activity endpoint: Fab′2 of 943 ng/µL, an Enzyme activity endpoint: Fc of 495 ng/µL, an Enzyme activity endpoint: IgG of 0 ng/µL and an Enzyme activity endpoint: scIgG of 0 ng/µL.

The protein B11 returned an Enzyme activity endpoint: Fab′2 of 686 ng/µL, an Enzyme activity endpoint: Fc of 433 ng/µL, an Enzyme activity endpoint: IgG of 15 ng/µL and an Enzyme activity endpoint: scIgG of 251 ng/µL.

In the case of B12, the Enzyme activity endpoint: Fab′2 came to 569 ng/µL, the Enzyme activity endpoint: Fc is 388 ng/µL, the Enzyme activity endpoint: IgG was determined as 0 ng/µL and the Enzyme activity endpoint: scIgG was 225 ng/µL.

B13: the Enzyme activity endpoint: Fab′2 was determined as 51 ng/µL, the Enzyme activity endpoint: Fc was determined as 276 ng/µL, the Enzyme activity endpoint: IgG was determined as 396 ng/µL and the Enzyme activity endpoint: scIgG amounted to 964 ng/µL.

The record behind these values is patent US20250027068.
